Test results reported in paper PMC6375650 (2019).

Target: H7 Sh2 HA (A/Shanghai/2/2013), ectodomain trimer, cleavage state not stated (influenza A virus (A/Shanghai/2/2013))
Assay: BLI

B1: H7.5 Fab H-M73R (Fab, V domains shown)
VH: QVQLVQSGAEVKKPGASVKVSCKASGYTLTRYYFHWVRQAPGQGFEWMGIINPNGGGTSYAQKFGDRVIMTSDRSTSTIYMELSSLRSEDTAVYYCARDMPYYHDSGGPLFDLWGQGTLVTVSS
VL: EIVMTQSPSSLSASVGDRVTITCRPSQSISTFLNWYEQKPGKAPKLLIYDASSLQSGVPSRFSGSGSGTEFTLTISSLQPEDFATYYCQQSFSTPYTFGQGTRLEIK
Work on B1 yielded a Kd of under 0.0001 µM.

B2: H7.5 Fab H-T57A (Fab, V domains shown)
VH: QVQLVQSGAEVKKPGASVKVSCKASGYTLTRYYFHWVRQAPGQGFEWMGIINPNGGGASYAQKFGDRVIMTSDMSTSTIYMELSSLRSEDTAVYYCARDMPYYHDSGGPLFDLWGQGTLVTVSS
VL: EIVMTQSPSSLSASVGDRVTITCRPSQSISTFLNWYEQKPGKAPKLLIYDASSLQSGVPSRFSGSGSGTEFTLTISSLQPEDFATYYCQQSFSTPYTFGQGTRLEIK
Work on B2 yielded a Kd of 0.116 µM.

B3: H7.5 Fab H-S74K (Fab, V domains shown)
VH: QVQLVQSGAEVKKPGASVKVSCKASGYTLTRYYFHWVRQAPGQGFEWMGIINPNGGGTSYAQKFGDRVIMTSDMKTSTIYMELSSLRSEDTAVYYCARDMPYYHDSGGPLFDLWGQGTLVTVSS
VL: EIVMTQSPSSLSASVGDRVTITCRPSQSISTFLNWYEQKPGKAPKLLIYDASSLQSGVPSRFSGSGSGTEFTLTISSLQPEDFATYYCQQSFSTPYTFGQGTRLEIK
B3 showed a Kd of under 0.0001 µM.

B4: H7.5 Fab H-S58W (Fab, V domains shown)
VH: QVQLVQSGAEVKKPGASVKVSCKASGYTLTRYYFHWVRQAPGQGFEWMGIINPNGGGTWYAQKFGDRVIMTSDMSTSTIYMELSSLRSEDTAVYYCARDMPYYHDSGGPLFDLWGQGTLVTVSS
VL: EIVMTQSPSSLSASVGDRVTITCRPSQSISTFLNWYEQKPGKAPKLLIYDASSLQSGVPSRFSGSGSGTEFTLTISSLQPEDFATYYCQQSFSTPYTFGQGTRLEIK
Binder B4 has a Kd of over 1 µM.

B5: H7.5 Fab L-Y96A (Fab, V domains shown)
VH: QVQLVQSGAEVKKPGASVKVSCKASGYTLTRYYFHWVRQAPGQGFEWMGIINPNGGGTSYAQKFGDRVIMTSDMSTSTIYMELSSLRSEDTAVYYCARDMPYYHDSGGPLFDLWGQGTLVTVSS
VL: EIVMTQSPSSLSASVGDRVTITCRPSQSISTFLNWYEQKPGKAPKLLIYDASSLQSGVPSRFSGSGSGTEFTLTISSLQPEDFATYYCQQSFSTPATFGQGTRLEIK
Work on B5 yielded a Kd of 0.549 µM.

B6: H7.5 Fab L-T94Q (Fab, V domains shown)
VH: QVQLVQSGAEVKKPGASVKVSCKASGYTLTRYYFHWVRQAPGQGFEWMGIINPNGGGTSYAQKFGDRVIMTSDMSTSTIYMELSSLRSEDTAVYYCARDMPYYHDSGGPLFDLWGQGTLVTVSS
VL: EIVMTQSPSSLSASVGDRVTITCRPSQSISTFLNWYEQKPGKAPKLLIYDASSLQSGVPSRFSGSGSGTEFTLTISSLQPEDFATYYCQQSFSQPYTFGQGTRLEIK
Work on B6 yielded a Kd of over 1 µM.
